We go through 167 variants from the RNAGym collection of RNA variant scans (doi:10.7554/elife.90254).

Sequences and labels used below:
B1: LINE1-full (parent)
chain: UACGUAGGUGGUUUUCCCCUGAUAGUGCUAAGGGGGCCUGGAAGUUUGGACUGGGCAGAGCUCAACACAGCGUGGCAAAGUGGCUGUGGCUAGACUGCCUCUCUGGAUUCCUCGUCACUCAGCAGGGCAUCUCUGAGAGAAAUGCC

Variants of B1 are the subject of this series. Briefly: self-cleavage, relative activity (ratio to wild type); higher = more cleavage; in vitro, sequencing; the parent is a self-cleaving ribozyme.
With A94G A129G, the self-cleavage is 0.11.
The same measure for G86A U100C: 0.1; for A92U C146G: 0.41; for U87A U112A: 0.07.
Next, A92U G105A: 0.77.
For U87A U115C, the self-cleavage was determined as 0.09.
As for U87A U115A, the self-cleavage came out at 0.1.
The same measure for U87A G106A: 0.06; for U87A G106C: 0.08.
The same measure for A92U A140G: 0.53.
Next, A92G U96A: 0.13; A92U A94U: 0.32.
Regarding U87A U130C, the self-cleavage is 0.08.
Next, U87A U130A: 0.09; U91A A121G: 0.84; U87G U119G: 0.3.
The same measure for A94G A124G: 0.06.
The same measure for U87C A142U: 0.09.
On to U87C A142C, for which the self-cleavage was found to be 0.24.
Next, A92C U132C: 0; C90U U104C: 0.04.
The same measure for A94C U134C: 0.09.
Next, U91C G106A: 0.95; G89A A142G: 0.03.
As for G86A A129G, the self-cleavage was found to be 0.05.
Turning to A92U U119A, the self-cleavage came out at 0.72.
Next, U91C C110U: 0.66.
The same measure for A94G C99U: 0.19.
In the case of G89A A141U, the self-cleavage was 0.02.
The same measure for G89A A141G: 0.02; for C90U A141G: 0.03.
Next, U87C A140U: 0.22; U87C A140G: 0.13; C90U A124G: 0.02.
As for C90U A124U, the self-cleavage was 0.02.
The same measure for U91C C99A: 0.11.
Next, U87A C98U: 0.05; C90U U134C: 0.04.
Next, U91C A117G: 0.78.
Consider U91C A117U, for which the self-cleavage was 0.92.
The same measure for A92U U143C: 0.99; for A92U U143A: 0.6.
Next, U87C U108A: 0.15; U87C U108C: 0.24.
Next, U87C U96C: 0.27.
On to A92G G126A, for which the self-cleavage was 0.13.
The same measure for A92G A138G: 0.08; for U87C C145G: 0.32.
Next, A94C U119C: 0.1; U87A G122A: 0.09; U91G A129U: 0.05.
The same measure for G93A U119C: 0.04; for G93A U119A: 0.03; for G88A G97A: 0.04.
As for U87A A136U, the self-cleavage came out at 0.1.
For G89A U143C, the self-cleavage was determined as 0.03.
Next, A94G A107U: 0.3; U91C U134C: 0.87.
U91C U134A: the self-cleavage was found to be 0.57.
For U87A A94U, the self-cleavage is 0.04.
G86U A129G: the self-cleavage is 0.09.
Next, G93U A141U: 0.02; G93U A141G: 0.03.
The same measure for U87C G126U: 0.3.
U91C A129G: the self-cleavage stood at 0.47.
Next, G93A U115C: 0.04; U87A A142G: 0.07; U87C C111U: 0.23.
As to U91C A107G, the self-cleavage amounted to 0.73.
Next, G89U U109A: 0.02; G86U A107G: 0.02.
Next, U91C G114A: 0.57; U87G U100C: 0.28.
The same measure for U91A U104C: 0.42; for U91A U130G: 1.24.
Consider A92G A129G, for which the self-cleavage is 0.
In the case of U87C C113U, the self-cleavage was determined as 0.
Next, G89A A138U: 0.05; G93U A142U: 0.04; U87A U132G: 0.1.
The same measure for U87A U132A: 0.07; for U87A U132C: 0.07.
Take U87G A117C: the self-cleavage was 0.31.
Next, A94C: 0.06; A94G: 0.31.
Next, G89U A142U: 0.04; U91C C133A: 0.74; A92C U109C: 0.
The same measure for G89A U112A: 0.05; for G86A A124U: 0.05.
As to G86A A124C, the self-cleavage is 0.03.
Next, A92U A136G: 0.94; G86A G126U: 0.02.
G93A A121U: the self-cleavage is 0.06.
Next, A92G U104C: 0.05.
On to U87G A142G, for which the self-cleavage stood at 0.25.
A92G U134A: the self-cleavage was determined as 0.
G89A A140U: the self-cleavage was 0.02.
Next, A92G A124U: 0.09.
The same measure for G88A G135A: 0.08.
The same measure for U87C G114A: 0.23.
In the case of U87C G114U, the self-cleavage is 0.19.
Next, U87C C118U: 0.22; U91C A140G: 0.75; U87C C120U: 0.13.
With G86A U96C, the self-cleavage is 0.05.
Next, C90U U132A: 0.01; C90U U132C: 0.03.
Next, U87A C123U: 0.06; G89C A107G: 0.11.
The same measure for U87A U143C: 0.11; for U91A U119C: 0.84.
With G88A U119A, the self-cleavage was 0.06.
Next, U91G: 0.04; U91C: 0.67; U91A: 0.58.
The same measure for G93A A141U: 0.04; for G89A U96C: 0.07; for U91C U96C: 0.13.
The same measure for U87C A92G: 0.1.
As to U91C C98U, the self-cleavage turned out to be 0.19.
The same measure for U91C A138U: 0.6; for U87C C131U: 0.15; for U87C A138U: 0.24.
Take A94G A141G: the self-cleavage was determined as 0.25.
The same measure for G88U A140G: 0.04; for A92U U104C: 0.96.
The same measure for U87A U109C: 0.11; for A92G U143C: 0.36.
The same measure for A92G A142G: 0.14; for U91C U108A: 0.55.
In the case of G88A, the self-cleavage was 0.04.
The same measure for G88C: 0.11; for G88U: 0.05.
Next, A92G A107G: 0.17.
With U87G C118U, the self-cleavage turned out to be 0.17.
Next, U87A U119G: 0.07; G89C A140U: 0.05; A92G C120U: 0.07.
Take U91A U143G: the self-cleavage stood at 0.56.
As to A94G A140U, the self-cleavage came to 0.33.
The same measure for A94C A129G: 0; for U91G A140G: 0.02.
The same measure for U91C U119C: 1.4; for A94C A140G: 0.04; for U87C C146U: 0.34.
The same measure for U87C C99U: 0.13; for U91C G127A: 0.53.
As for U91C A136U, the self-cleavage is 0.58.
Next, A92U C128U: 0.47; G88A U115C: 0.06; G88U G126A: 0.
The same measure for G89A U115C: 0.04; for A92U U108C: 1.2; for A94C A136G: 0.07.
Next, U87G A140U: 0.13; G88A A121U: 0.04.
On to A92U U130G, for which the self-cleavage was 1.61.
Regarding A92U U130C, the self-cleavage was 0.73.
The same measure for A92G U132A: 0.05; for U87A A138U: 0.03.
For A92C A141G, the self-cleavage stood at 0.26.
The same measure for A92G C131G: 0.22; for U87C A121G: 0.15.
Next, A92G A94G: 0.12.
Next, U91C U130C: 0.77; U91A A141G: 0.51.
